Laboratory results published in PMC11998062, “One-Pot Total Synthesis of a Post-translationally Modified Max Transcription Factor Sheds Light on Ser-Phosphorylation and Lys-Acetylation Crosstalk in DNA Binding”.

What was measured:
[1] = system: MaxS2pS11pK31AcK57Ac S2pS;S11pS;K31Ac;K57Ac;M1Nle;M65Nle;M148Nle, P61244-2; experiment: BLI; details: EMSA: 10 mM MES pH 6.0, 150 mM KCl, 1 mM MgCl2, 10% glycerol, room temperature 30 min, 8% TBE gel; CD: same buffer; BLI: 1x PBS, 0.1% BSA, 0.02% Tween-20, 65 nM
Chain of MaxS2pS11pK31AcK57Ac S2pS;S11pS;K31Ac;K57Ac;M1Nle;M65Nle;M148Nle, P61244-2 (P61244 whole entry, looked up): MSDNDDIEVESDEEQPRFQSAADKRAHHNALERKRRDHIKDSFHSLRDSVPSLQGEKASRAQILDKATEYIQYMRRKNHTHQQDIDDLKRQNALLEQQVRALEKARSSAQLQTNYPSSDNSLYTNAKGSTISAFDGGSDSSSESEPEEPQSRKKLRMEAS

Max-WT = Max-WT (UniProt P61244-2, M1Nle;M65Nle;M148Nle); experiment: EMSA; 1 uM DNA, 0-8 uM protein, 1 mM MgCl2; EMSA: 10 mM MES pH 6.0, 150 mM KCl, 1 mM MgCl2, 10% glycerol, room temperature 30 min, 8% TBE gel; CD: same buffer; BLI: 1x PBS, 0.1% BSA, 0.02% Tween-20, 65 nM biotinylated DNA loaded (temperature not in material); details: tags: C-terminal extra K; chain copies: 2
Chain of Max-WT (P61244 other isoform, or with tags, fused parts or gaps M1Nle;M65Nle;M148Nle): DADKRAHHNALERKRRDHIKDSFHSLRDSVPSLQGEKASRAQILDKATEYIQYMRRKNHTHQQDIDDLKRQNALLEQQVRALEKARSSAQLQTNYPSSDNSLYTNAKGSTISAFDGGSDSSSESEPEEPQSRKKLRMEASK

Row | Molecule | Kd [1] [µM] | binding result (Max-WT)
1 | CCGGCTGACACGTGGTATTAAT (double strand) [biotinylated E-box DNA probe] | 1.1 | –
2 | E-box DNA probe (dsDNA) DNA 1: CCGGCTGACACGTGGTATTAAT DNA 2: ATTAATACCACGTGTCAGCCGG | – | binds
